Biological target: T1, Eptatretus stoutii FIL-Alpha including a polyhistidine tag (Eptatretus stoutii, UniProt Q90501 1-643)
T1 construct: Recombinant protein expressed in E. coli; also called alpha protein; hagfish intermediate filament alpha protein
T1 sequence: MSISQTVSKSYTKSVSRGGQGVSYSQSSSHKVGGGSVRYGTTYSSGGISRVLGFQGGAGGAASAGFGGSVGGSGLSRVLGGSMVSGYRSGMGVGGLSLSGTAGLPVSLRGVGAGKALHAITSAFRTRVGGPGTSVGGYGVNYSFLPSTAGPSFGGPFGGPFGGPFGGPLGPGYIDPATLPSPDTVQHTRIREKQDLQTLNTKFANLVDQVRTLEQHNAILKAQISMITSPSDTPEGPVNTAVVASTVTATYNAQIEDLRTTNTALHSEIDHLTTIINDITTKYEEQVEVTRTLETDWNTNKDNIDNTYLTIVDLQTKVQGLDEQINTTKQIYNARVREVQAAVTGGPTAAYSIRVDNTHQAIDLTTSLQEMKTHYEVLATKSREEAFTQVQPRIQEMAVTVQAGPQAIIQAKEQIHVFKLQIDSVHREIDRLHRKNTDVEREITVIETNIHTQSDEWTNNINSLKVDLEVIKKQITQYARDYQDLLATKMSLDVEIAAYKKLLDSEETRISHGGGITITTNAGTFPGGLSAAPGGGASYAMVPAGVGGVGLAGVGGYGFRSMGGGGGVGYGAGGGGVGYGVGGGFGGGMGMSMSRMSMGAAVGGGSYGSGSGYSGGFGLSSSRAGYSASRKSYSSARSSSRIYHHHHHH
Assay: filament/thread self-assembly of refolded recombinant His-tagged proteins; filaments observed by microscopy

B1: Eptatretus stoutii FIL-Gamma including a polyhistidine tag (other)
chain: MASHSSVSYRSVRTGGTSAMIGSSGYGGSSSSRAMGLGMGAAGLSMGGGSFRVGSAGIGGMGISSGIGGMGISSRAGGMSAYGGAASGGAGGFVSGGVPMLGYGGGAGGFIGGVSPGIMASPAFTAGRAITSAGMSGVVGTLGPAGGMVPSLVSRDEVKNILGTLNQRLASYVDKVRQLTIENETMEEELKNLTGGVPMSPDSTVNLENVETQVTEMLTEVSNLTLERVRLEIDVDHLRATADEIKSKYEFELGVRMQLETDIANMKRDLEAANDMRVDLDSKFNFLTEELTFQRKTQMEELNTLKQQFGRLGPVQTSVIELDNVKSVNLTDALNVMREEYQQVVTKNVQEAETYCKMQIDQIQGISTQTTEQISILDKEINTLEKELQPLNVEYQRLLTTYQTLGDRLTDLQNRESIDLVQFQNTYTRYEQEIEGNQVDLQRQLVTYQQLLDVKTALDAEIATYKKLLEGQELMVRTAMADDFAHATVVRSGTLGGASSSSVGYGASSTTLGAISGGYSTGGGASYSAGAGGASYSAGAGGASYGVGGGYSGGSSAMMEGSSSGGHSMYSSSSMKRSSSKSASASAGGYGTSGHDSTIILQQHHHHHH
notes: also called gamma protein; hagfish intermediate filament gamma protein
  binding result: binds

— US20190002529A1 (GOVERNMENT OF THE UNITED STATES OF AMERICA AS REPRESENTED …, published 2019)
